Laboratory results reported in patent US20260232827A1 (Zymeworks, published 2026).

T1: human sodium-dependent phosphate transporter 2B (NaPi2b) (human, UniProt O95436 1-690)
T1 sequence: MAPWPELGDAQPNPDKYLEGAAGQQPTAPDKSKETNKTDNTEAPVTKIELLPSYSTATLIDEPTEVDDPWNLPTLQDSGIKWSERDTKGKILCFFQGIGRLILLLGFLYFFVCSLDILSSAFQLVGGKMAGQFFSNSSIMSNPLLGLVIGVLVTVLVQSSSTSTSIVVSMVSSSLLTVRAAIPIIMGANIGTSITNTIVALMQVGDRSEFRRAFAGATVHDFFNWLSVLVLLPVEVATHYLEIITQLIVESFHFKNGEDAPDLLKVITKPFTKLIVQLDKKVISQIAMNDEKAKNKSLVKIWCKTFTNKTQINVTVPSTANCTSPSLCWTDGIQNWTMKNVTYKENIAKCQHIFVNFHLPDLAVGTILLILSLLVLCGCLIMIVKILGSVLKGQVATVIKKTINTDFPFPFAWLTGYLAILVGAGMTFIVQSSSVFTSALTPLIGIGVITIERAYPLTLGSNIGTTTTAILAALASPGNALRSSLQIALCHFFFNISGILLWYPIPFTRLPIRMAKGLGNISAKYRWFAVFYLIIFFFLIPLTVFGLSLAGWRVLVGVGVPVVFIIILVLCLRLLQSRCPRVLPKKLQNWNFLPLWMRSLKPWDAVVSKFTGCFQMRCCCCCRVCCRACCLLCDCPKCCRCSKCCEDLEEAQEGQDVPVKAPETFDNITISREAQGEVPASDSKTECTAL

T2: cynomolgus monkey NaPi2b (cynomolgus monkey, UniProt O95436 1-690 (human entry))
T2 construct: Transfected into HEK293-6e cells (clone CL_#13433); also called Cy NaPi2b; Cyno NaPi2b
T2 chain: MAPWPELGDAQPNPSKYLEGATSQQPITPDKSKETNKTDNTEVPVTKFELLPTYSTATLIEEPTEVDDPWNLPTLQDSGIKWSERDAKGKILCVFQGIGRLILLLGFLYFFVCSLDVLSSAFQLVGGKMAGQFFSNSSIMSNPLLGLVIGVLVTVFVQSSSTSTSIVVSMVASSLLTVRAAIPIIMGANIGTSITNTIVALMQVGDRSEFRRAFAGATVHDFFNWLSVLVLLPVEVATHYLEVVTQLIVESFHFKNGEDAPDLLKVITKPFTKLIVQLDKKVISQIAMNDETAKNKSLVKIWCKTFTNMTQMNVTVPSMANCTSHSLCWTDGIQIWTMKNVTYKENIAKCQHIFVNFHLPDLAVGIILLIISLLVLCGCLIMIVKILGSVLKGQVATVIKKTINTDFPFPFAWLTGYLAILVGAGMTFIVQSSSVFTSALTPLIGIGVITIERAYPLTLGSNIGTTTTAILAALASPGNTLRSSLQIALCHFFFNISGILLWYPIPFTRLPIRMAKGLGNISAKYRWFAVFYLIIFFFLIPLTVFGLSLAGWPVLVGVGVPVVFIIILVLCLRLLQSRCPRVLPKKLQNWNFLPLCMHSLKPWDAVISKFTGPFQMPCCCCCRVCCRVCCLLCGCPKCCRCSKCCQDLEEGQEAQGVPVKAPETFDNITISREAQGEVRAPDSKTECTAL

T3: mouse NaPi2b (mouse, UniProt Q9DBP0 1-697)
T3 construct: Transfected into HEK293-6e cells (clone CL_#13476); also called Ms NaPi2b
T3 sequence: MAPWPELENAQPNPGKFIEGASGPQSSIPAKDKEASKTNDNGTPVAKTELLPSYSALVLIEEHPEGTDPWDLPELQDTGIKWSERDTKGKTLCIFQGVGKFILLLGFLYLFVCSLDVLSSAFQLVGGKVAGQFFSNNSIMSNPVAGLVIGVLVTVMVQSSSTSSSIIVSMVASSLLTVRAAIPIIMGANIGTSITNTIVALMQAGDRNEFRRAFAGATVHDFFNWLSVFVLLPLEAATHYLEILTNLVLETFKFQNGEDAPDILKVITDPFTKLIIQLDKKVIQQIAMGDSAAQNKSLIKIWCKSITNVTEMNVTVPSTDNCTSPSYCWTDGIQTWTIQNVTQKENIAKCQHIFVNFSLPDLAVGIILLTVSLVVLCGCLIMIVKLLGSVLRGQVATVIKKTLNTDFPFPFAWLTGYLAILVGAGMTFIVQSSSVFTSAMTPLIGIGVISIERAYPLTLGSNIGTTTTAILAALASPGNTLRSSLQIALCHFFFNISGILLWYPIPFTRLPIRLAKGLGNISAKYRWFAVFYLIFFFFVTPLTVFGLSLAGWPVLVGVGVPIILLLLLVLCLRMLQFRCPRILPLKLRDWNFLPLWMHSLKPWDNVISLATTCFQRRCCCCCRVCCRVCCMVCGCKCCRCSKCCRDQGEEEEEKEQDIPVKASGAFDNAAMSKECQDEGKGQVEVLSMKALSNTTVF

T4: human NaPi2b (sodium-dependent phosphate transporter 2B) (human, UniProt O95436 1-690)
T4 sequence: T1 sequence

T5: human sodium-dependent phosphate transporter 2B (NaPi2b) (human, UniProt O95436 1-690)
T5 construct: UniProt ID is given as 095436 [sic]; also called hNaPi2b; Hu NaPi2b
T5 sequence: T1 sequence

B1: v38591-MC-GGFG-AM-Compound 139 DAR 8 (antibody, human IgG1, kappa)
heavy: not shown
light: DVQMTQSPSSLSASVGDRVTITCRASQDVYSYLNWYQQKPGKAVKLLIYYTSRLQSGVPSRFSGSGSGTDYTLTISSLQPEDFATYYCQQYNIFPWTFGQGTKLEIKRTVAAPSVFIFPPSDEQLKSGTASVVCLLNNFYPREAKVQWKVDNALQSGNSQESVTEQDSKDSTYSLSSTLTLSKADYEKHKVYACEVTHQGLSSPVTKSFNRGEC
modifications: drug-linker MC-GGFG-AM-Compound 139 on cysteine thiols after TCEP reduction, positions not given; DAR 8 for the whole antibody
notes: Antibody-drug conjugate of v38591 (IgG1/kappa); also called v38593
B2: v38591-MC-GGFG-AM-Compound 139 DAR 4 (antibody, human IgG1, kappa)
heavy: not shown
light: B1 light
modifications: drug-linker MC-GGFG-AM-Compound 139 on cysteines freed by TCEP reduction, DAR 4 over the whole antibody
B3: v38591-MC-GGFG-AM-Compound 139 DAR 4 (antibody, human IgG1, kappa)
heavy: not shown
light: B1 light
modifications: drug-linker MC-GGFG-AM-Compound 139 on cysteine thiols after TCEP reduction, positions not given; DAR 4 for the whole antibody
notes: Antibody-drug conjugate of v38591 (IgG1/kappa)
B4: v40502-MC-GGFG-AM-Compound 139 DAR 4 (antibody, human IgG1, kappa, L234A L235A)
heavy: not shown
light: B1 light
modifications: drug-linker MC-GGFG-AM-Compound 139 on cysteines freed by TCEP reduction, DAR 4 over the whole antibody
B5: v40502 (LALADS)-MC-GGFG-AM-Compound 139 DAR 4 (antibody, human IgG1, kappa, L234A L235A)
heavy: not shown
light: B1 light
modifications: as above; MC-GGFG-AM-Compound 139 drug-linker on cysteines freed by TCEP reduction; sites not stated; DAR 4
notes: Antibody-drug conjugate of v40502
B6: v40502 (LALADS) anti-NaPi2b antibody (antibody, human IgG1, kappa, L234A L235A)
heavy: not shown
light: B1 light
notes: v38591 with L234A, L235A and D265S (EU) in the Fc

What was measured:
[1] = target: T1, human sodium-dependent phosphate …; experiment: cell-based or functional assay
[2] = target: T1, human sodium-dependent phosphate …; experiment: flow cytometry on HEK293-6e cells transfected with human NaPi2b
Protocol: (§1) Following transfection, cells were seeded at 50,000 cells/well in conical-bottom 96-well plates and treated with test antibody or antibody-drug conjugate for 24 hours at 4° C. to prevent internalization. […] Following incubation and washing, fluorescence was detected by flow cytometry on a BD LSRFortessa™ Cell Analyzer (BD Biosciences, Franklin Lake, NJ) with 1,000 minimum events collected per well.

cynomolgus monkey NaPi2b [3] = target: T2, cynomolgus monkey NaPi2b; experiment: flow cytometry on HEK293-6e cells transfected with cynomolgus NaPi2b
Protocol: as §1

cynomolgus monkey NaPi2b [4] = target: T2, cynomolgus monkey NaPi2b; experiment: flow cytometry on HEK293-6e cells transfected with cynomolgus NaPi2b, apparent Kd
Protocol: as §1

[5] = target: T1, human sodium-dependent phosphate …; experiment: flow cytometry on OVCAR-3 cells, 24 h at 4 C, anti-human IgG Fc AF647
Protocol: (§2) Following incubation and washing, fluorescence was detected by flow cytometry on a BD LSRFortessa™ Cell Analyzer (BD Biosciences, Franklin Lake, NJ) with 1,000 minimum events collected per well.

[6] = target: T1, human sodium-dependent phosphate …; experiment: flow cytometry on HEK293-6e cells transfected with human NaPi2b; remark: listed apart in the source
Protocol: as §1

mouse NaPi2b [7] = target: T3, mouse NaPi2b; experiment: flow cytometry on HEK293-6e cells transfected with mouse NaPi2b, apparent Kd
Protocol: as §1

mouse NaPi2b [8] = target: T3, mouse NaPi2b; experiment: flow cytometry on HEK293-6e cells transfected with mouse NaPi2b
Protocol: as §1

[9] = target: T1, human sodium-dependent phosphate …; experiment: flow cytometry on IGROV-1 cells, 24 h at 4 C, anti-human IgG Fc AF647
Protocol: as §2

[10] = target: T4, human NaPi2b (sodium-dependent …); experiment: cell-based or functional assay
[11] = target: T4, human NaPi2b (sodium-dependent …); experiment: flow cytometry on HCC-78 cells (endogenous NaPi2b), 24 h at 4 C
Protocol: (§3) Cells were maintained under standard culture conditions (37° C./5% CO₂) until assay set-up. […] Cells were removed from culture vessels using Cell Dissociation Buffer (Invitrogen, Waltham, MA), seeded at 50,000 cells/well in conical-bottom 96-well plates, and treated with test antibody or antibody-drug conjugate for 24 hours at 4° C. to prevent internalization. […] Following incubation and washing, fluorescence was detected by flow cytometry on a BD LSRFortessa™ Cell Analyzer (BD Biosciences, Franklin Lake, NJ) with 1,000 minimum events collected per well.

[12] = target: T4, human NaPi2b (sodium-dependent …); experiment: flow cytometry on H441 cells (endogenous NaPi2b), 24 h at 4 C
Protocol: as §3

[13] = target: T4, human NaPi2b (sodium-dependent …); experiment: flow cytometry on IGROV-1 cells (endogenous NaPi2b), 24 h at 4 C
Protocol: as §3

[14] = target: T4, human NaPi2b (sodium-dependent …); experiment: cell-based or functional assay; remark: listed apart in the source
[15] = target: T5, human sodium-dependent phosphate …; experiment: flow cytometry on H441 cells (endogenous NaPi2b), 24 h at 4 C, anti-human IgG Fc AF647, APC-A GeoMean
Protocol: as §3

[16] = target: T5, human sodium-dependent phosphate …; experiment: flow cytometry on IGROV-1 cells (endogenous NaPi2b), 24 h at 4 C, anti-human IgG Fc AF647, APC-A GeoMean
[17] = target: T5, human sodium-dependent phosphate …; experiment: flow cytometry on HCC-78 cells (endogenous NaPi2b), 24 h at 4 C, anti-human IgG Fc AF647, APC-A GeoMean
Protocol: as §3

| Binder | Bmax [2] | Bmax (cynomolgus monkey NaPi2b [3]) | Kd (cynomolgus monkey NaPi2b [4]) [nM] | Bmax [5] | Kd [5] [nM] | Bmax [6] | Kd (mouse NaPi2b [7]) [nM] | Bmax (mouse NaPi2b [8]) | Bmax [9] | Kd [9] [nM] | Internalized Fluorescence Fold-Over Untreated, H441, 4 h, 2.5 nM [10] [fold] | Internalized Fluorescence Fold-Over Untreated, H441, 24 h, 2.5 nM [10] [fold] | Internalized Fluorescence Fold-Over Untreated, HCC-78, 4 h, 2.5 nM [10] [fold] | Internalized Fluorescence Fold-Over Untreated, HCC-78, 24 h, 2.5 nM [10] [fold] | Internalized Fluorescence Fold-Over Untreated, IGROV-1, 4 h, 2.5 nM [10] [fold] | Internalized Fluorescence Fold-Over Untreated, IGROV-1, 24 h, 2.5 nM [10] [fold] | Bmax (MFI) [11] [MFI] | Kd [11] [nM] | Bmax (MFI) [12] [MFI] | Kd [12] [nM] | further results |
| --- | --- | --- | --- | --- | --- | --- | --- | --- | --- | --- | --- | --- | --- | --- | --- | --- | --- | --- | --- | --- | --- |
| B1 | 1530 | 408 | 0.47 | 14300 | 2.71 | 1530 | 0.64 | 396 | 20500 | 1.6 | – | – | – | – | – | – | – | – | – | – | Internalized Fluorescence in OVCAR-3, 15 min, 100 nM [1]: 7380; Internalized Fluorescence in OVCAR-3, 4 hr, 100 nM [1]: 15600; Internalized Fluorescence in OVCAR-3, 16 hr, 100 nM [1]: 16800; Internalized Fluorescence in OVCAR-3, 24 hr, 100 nM [1]: 26700 |
| B2 | – | – | – | – | – | – | – | – | – | – | 1.2 | 2 | 5.6 | 35.9 | 7.1 | 26.6 | 7810 | 1.07 | 521 | 0.74 | Bmax (MFI) [13]: 10500 MFI; Kd [13]: 0.82 nM; EC50 (nM), in vitro cytotoxicity, H441 spheroids, 7 days [14]: 9.85 nM; EC50 (nM), in vitro cytotoxicity, H1781 spheroids, 7 days [14]: 0.95 nM |
| B3 | 1260 | 459 | 0.36 | 15500 | 2.52 | 1260 | 1.49 | 538 | 22700 | 1.7 | – | – | – | – | – | – | – | – | – | – | – |
| B4 | – | – | – | – | – | – | – | – | – | – | 1.2 | 1.9 | 5.3 | 36.5 | 6.8 | 25.4 | 7770 | 1.12 | 518 | 0.81 | Bmax (MFI) [13]: 10700 MFI; Kd [13]: 0.82 nM; EC50 (nM), in vitro cytotoxicity, H441 spheroids, 7 days [14]: 7.57 nM; EC50 (nM), in vitro cytotoxicity, H1781 spheroids, 7 days [14]: 1.15 nM |
| B5 | – | – | – | – | – | – | – | – | – | – | – | – | – | – | – | – | – | – | – | – | EC50 (read off the curve) [15]: ~0.6 nM; EC50 (read off the curve) [16]: ~2 nM; EC50 (read off the curve) [17]: ~3 nM |
| B6 | – | – | – | – | – | – | – | – | – | – | – | – | – | – | – | – | – | – | – | – | EC50 (read off the curve) [15]: ~0.6 nM; EC50 (read off the curve) [16]: ~2 nM; EC50 (read off the curve) [17]: ~3 nM |
